Where two headings read alike, the source gives them in different places.
Columns and labels:
[1] = molecular target: T1, human epidermal growth factor receptor 2 (HER2) extracellular domain (human, UniProt P04626 23-629); assay: SPR, table row 25
[2] = molecular target: T1, human epidermal growth factor receptor …; assay: SPR, table row 39
[3] = molecular target: T1, human epidermal growth factor receptor …; assay: SPR, table row 2
[4] = molecular target: T1, human epidermal growth factor receptor …; assay: SPR, table row 1
[5] = molecular target: T1, human epidermal growth factor receptor …
[6] = molecular target: T1, human epidermal growth factor receptor …; assay: SPR, table row 3
[7] = molecular target: T1, human epidermal growth factor receptor …; assay: SPR, table row 7
[8] = molecular target: T1, human epidermal growth factor receptor …; assay: SPR, table row 33
[9] = molecular target: T1, human epidermal growth factor receptor …; assay: SPR, table row 29
[10] = molecular target: T1, human epidermal growth factor receptor …; assay: SPR, table row 32
[11] = molecular target: T1, human epidermal growth factor receptor …; assay: SPR, table row 35
[12] = molecular target: T1, human epidermal growth factor receptor …; assay: SPR, table row 26
[13] = molecular target: T1, human epidermal growth factor receptor …; assay: SPR, table row 30
[14] = molecular target: T1, human epidermal growth factor receptor …; assay: SPR, table row 34
[15] = molecular target: T1, human epidermal growth factor receptor …; assay: SPR, table row 4
[16] = molecular target: T1, human epidermal growth factor receptor …; assay: SPR, table row 18
[17] = molecular target: T1, human epidermal growth factor receptor …; assay: SPR, table row 5
[18] = molecular target: T1, human epidermal growth factor receptor …; assay: SPR, table row 10
[19] = molecular target: T1, human epidermal growth factor receptor …; assay: SPR, table row 8
[20] = molecular target: T1, human epidermal growth factor receptor …; assay: SPR, table row 28
[21] = molecular target: T1, human epidermal growth factor receptor …; assay: SPR, table row 40
[22] = molecular target: T1, human epidermal growth factor receptor …; assay: SPR, table row 9
[23] = molecular target: T1, human epidermal growth factor receptor …; assay: SPR, table row 21
[24] = molecular target: T1, human epidermal growth factor receptor …; assay: SPR, table row 27
[25] = molecular target: T1, human epidermal growth factor receptor …; assay: SPR, table row 38
[26] = molecular target: T1, human epidermal growth factor receptor …; assay: SPR, table row 42
[27] = molecular target: T1, human epidermal growth factor receptor …; assay: SPR (Carterra LSA), Fab captured, HER2 ECD as analyte

B1: Trast_Her2_229 (Fab, V domains shown)
VH: EVQLVESGGGLVQPGGSLRLSCAASGFNIKDTYIHWVRQAPGKGLEWVARIYPTNGYTRYADSVKGRFTISADTSKNTAYLQMNSLRAEDTAVYYCARFDRYGYYLGTWGQGTLVTVSS
VL: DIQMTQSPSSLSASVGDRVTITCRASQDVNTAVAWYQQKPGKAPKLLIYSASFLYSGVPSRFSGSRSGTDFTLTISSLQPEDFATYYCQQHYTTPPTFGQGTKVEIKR
notes: also called HCDR3 ARFDRYGYYLGT
Kd [1]: 30.4 nM
koff [1]: 0.000635 s⁻¹
kon [1]: 20900 M⁻¹ s⁻¹
Kd [2]: 114 nM
koff [2]: 0.00201 s⁻¹
kon [2]: 17700 M⁻¹ s⁻¹

B2: Trast_Her2_12 (Fab, V domains shown)
VH: EVQLVESGGGLVQPGGSLRLSCAASGFNIKDTYIHWVRQAPGKGLEWVARIYPTNGYTRYADSVKGRFTISADTSKNTAYLQMNSLRAEDTAVYYCAGHWTYRFADTLWGQGTLVTVSS
VL: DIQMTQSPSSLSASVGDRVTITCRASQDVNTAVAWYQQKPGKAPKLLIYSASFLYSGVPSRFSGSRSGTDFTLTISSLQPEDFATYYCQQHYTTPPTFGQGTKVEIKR
notes: also called HCDR3 AGHWTYRFADTL
Kd [3]: ≤ 0.792 nM
koff [3]: ≤ 1e-05 s⁻¹
kon [3]: 12600 M⁻¹ s⁻¹

B3: Trast_Her2_49 (Fab, V domains shown)
VH: EVQLVESGGGLVQPGGSLRLSCAASGFNIKDTYIHWVRQAPGKGLEWVARIYPTNGYTRYADSVKGRFTISADTSKNTAYLQMNSLRAEDTAVYYCAKGTSSWYNFGVWGQGTLVTVSS
VL: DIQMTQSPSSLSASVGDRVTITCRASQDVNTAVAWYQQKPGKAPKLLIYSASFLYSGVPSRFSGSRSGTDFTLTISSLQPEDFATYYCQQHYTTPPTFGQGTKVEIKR
notes: also called HCDR3 AKGTSSWYNFGV
Kd [4]: ≤ 0.517 nM
koff [4]: ≤ 1e-05 s⁻¹
kon [4]: 19300 M⁻¹ s⁻¹

B4: Trast_Her2_52 (Fab, V domains shown)
VH: EVQLVESGGGLVQPGGSLRLSCAASGFNIKDTYIHWVRQAPGKGLEWVARIYPTNGYTRYADSVKGRFTISADTSKNTAYLQMNSLRAEDTAVYYCAKISRYYYGMDYWGQGTLVTVSS
VL: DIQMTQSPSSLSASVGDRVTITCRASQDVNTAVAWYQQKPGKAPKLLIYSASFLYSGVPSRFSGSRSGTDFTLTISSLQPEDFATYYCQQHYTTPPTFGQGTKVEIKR
notes: also called HCDR3 AKISRYYYGMDY
Kd [5]: 9.01 nM
koff [5]: 0.000127 s⁻¹
kon [5]: 14100 M⁻¹ s⁻¹
Kd [6]: 0.929 nM
koff [6]: 1e-05 s⁻¹
kon [6]: 10800 M⁻¹ s⁻¹

B5: Trast_Her2_56 (Fab, V domains shown)
VH: EVQLVESGGGLVQPGGSLRLSCAASGFNIKDTYIHWVRQAPGKGLEWVARIYPTNGYTRYADSVKGRFTISADTSKNTAYLQMNSLRAEDTAVYYCAKPYYFNYDLGVWGQGTLVTVSS
VL: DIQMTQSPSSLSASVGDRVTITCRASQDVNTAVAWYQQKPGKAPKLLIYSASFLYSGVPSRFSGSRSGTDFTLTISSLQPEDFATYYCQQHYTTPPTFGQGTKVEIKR
notes: also called HCDR3 AKPYYFNYDLGV
Kd [7]: 2.44 nM
koff [7]: 2.42e-05 s⁻¹
kon [7]: 9940 M⁻¹ s⁻¹
Kd [8]: 56.8 nM
koff [8]: 0.000933 s⁻¹
kon [8]: 16400 M⁻¹ s⁻¹

B6: Trast_Her2_58 (Fab, V domains shown)
VH: EVQLVESGGGLVQPGGSLRLSCAASGFNIKDTYIHWVRQAPGKGLEWVARIYPTNGYTRYADSVKGRFTISADTSKNTAYLQMNSLRAEDTAVYYCAKRDFGRDWFAYWGQGTLVTVSS
VL: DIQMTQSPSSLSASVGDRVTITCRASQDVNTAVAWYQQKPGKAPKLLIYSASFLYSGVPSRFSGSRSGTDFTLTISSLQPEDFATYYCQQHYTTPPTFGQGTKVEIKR
notes: also called HCDR3 AKRDFGRDWFAY
Kd [9]: 38.8 nM
koff [9]: 0.000582 s⁻¹
kon [9]: 15000 M⁻¹ s⁻¹

B7: Trast_Her2_59 (Fab, V domains shown)
VH: EVQLVESGGGLVQPGGSLRLSCAASGFNIKDTYIHWVRQAPGKGLEWVARIYPTNGYTRYADSVKGRFTISADTSKNTAYLQMNSLRAEDTAVYYCAKRNAYRGSLDYWGQGTLVTVSS
VL: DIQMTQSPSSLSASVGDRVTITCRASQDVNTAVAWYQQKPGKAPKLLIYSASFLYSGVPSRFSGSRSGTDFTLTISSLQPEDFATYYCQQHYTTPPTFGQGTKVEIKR
notes: also called HCDR3 AKRNAYRGSLDY
Kd [10]: 51.1 nM
koff [10]: 0.000717 s⁻¹
kon [10]: 14000 M⁻¹ s⁻¹
Kd [11]: 64.9 nM
koff [11]: 0.00077 s⁻¹
kon [11]: 11900 M⁻¹ s⁻¹

B8: Trast_Her2_70 (Fab, V domains shown)
VH: EVQLVESGGGLVQPGGSLRLSCAASGFNIKDTYIHWVRQAPGKGLEWVARIYPTNGYTRYADSVKGRFTISADTSKNTAYLQMNSLRAEDTAVYYCAKYDYYIYDFDIWGQGTLVTVSS
VL: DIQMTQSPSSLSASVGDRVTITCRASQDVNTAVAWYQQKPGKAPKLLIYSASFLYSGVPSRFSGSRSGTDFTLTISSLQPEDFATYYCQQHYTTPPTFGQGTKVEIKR
notes: also called HCDR3 AKYDYYIYDFDI
Kd [5]: 19.4 nM
koff [5]: 0.000369 s⁻¹
kon [5]: 19000 M⁻¹ s⁻¹
Kd [12]: 30.5 nM
koff [12]: 0.000284 s⁻¹
kon [12]: 9320 M⁻¹ s⁻¹

B9: Trast_Her2_231 (Fab, V domains shown)
VH: EVQLVESGGGLVQPGGSLRLSCAASGFNIKDTYIHWVRQAPGKGLEWVARIYPTNGYTRYADSVKGRFTISADTSKNTAYLQMNSLRAEDTAVYYCARFGISGYYWDVWGQGTLVTVSS
VL: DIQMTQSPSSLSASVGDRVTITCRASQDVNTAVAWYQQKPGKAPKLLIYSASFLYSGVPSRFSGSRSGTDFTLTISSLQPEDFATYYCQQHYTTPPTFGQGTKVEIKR
notes: also called HCDR3 ARFGISGYYWDV
Kd [13]: 43.3 nM
koff [13]: 0.00106 s⁻¹
kon [13]: 24500 M⁻¹ s⁻¹
Kd [14]: 64.4 nM
koff [14]: 0.0014 s⁻¹
kon [14]: 21800 M⁻¹ s⁻¹

B10: Trast_Her2_131 (Fab, V domains shown)
VH: EVQLVESGGGLVQPGGSLRLSCAASGFNIKDTYIHWVRQAPGKGLEWVARIYPTNGYTRYADSVKGRFTISADTSKNTAYLQMNSLRAEDTAVYYCARDGRYGYQDYWGQGTLVTVSS
VL: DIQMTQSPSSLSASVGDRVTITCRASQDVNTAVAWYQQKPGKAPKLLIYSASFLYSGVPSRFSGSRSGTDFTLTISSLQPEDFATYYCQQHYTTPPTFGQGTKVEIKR
notes: also called HCDR3 ARDGRYGYQDY
Kd [15]: 1 nM
koff [15]: 1e-05 s⁻¹
kon [15]: 9990 M⁻¹ s⁻¹
Kd [16]: 8.06 nM
koff [16]: 0.000202 s⁻¹
kon [16]: 25000 M⁻¹ s⁻¹

B11: Trast_Her2_51 (Fab, V domains shown)
VH: EVQLVESGGGLVQPGGSLRLSCAASGFNIKDTYIHWVRQAPGKGLEWVARIYPTNGYTRYADSVKGRFTISADTSKNTAYLQMNSLRAEDTAVYYCAKHYDGWILAYWGQGTLVTVSS
VL: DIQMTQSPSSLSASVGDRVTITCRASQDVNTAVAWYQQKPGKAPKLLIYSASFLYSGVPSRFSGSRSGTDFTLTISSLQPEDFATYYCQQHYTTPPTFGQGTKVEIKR
notes: also called HCDR3 AKHYDGWILAY
Kd [17]: 1.03 nM
koff [17]: 1e-05 s⁻¹
kon [17]: 9680 M⁻¹ s⁻¹
Kd [18]: 2.89 nM
koff [18]: 4.35e-05 s⁻¹
kon [18]: 15100 M⁻¹ s⁻¹

B12: Trast_Her2_54 (Fab, V domains shown)
VH: EVQLVESGGGLVQPGGSLRLSCAASGFNIKDTYIHWVRQAPGKGLEWVARIYPTNGYTRYADSVKGRFTISADTSKNTAYLQMNSLRAEDTAVYYCAKNFLIGTRYWWGQGTLVTVSS
VL: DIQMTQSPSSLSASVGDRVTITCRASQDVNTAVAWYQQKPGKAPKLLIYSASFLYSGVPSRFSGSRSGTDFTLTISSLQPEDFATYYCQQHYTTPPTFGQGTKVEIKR
notes: also called HCDR3 AKNFLIGTRYW
Kd [19]: 2.68 nM
koff [19]: 4.11e-05 s⁻¹
kon [19]: 15400 M⁻¹ s⁻¹

B13: Trast_Her2_76 (Fab, V domains shown)
VH: EVQLVESGGGLVQPGGSLRLSCAASGFNIKDTYIHWVRQAPGKGLEWVARIYPTNGYTRYADSVKGRFTISADTSKNTAYLQMNSLRAEDTAVYYCAMDFKFTRLDLWGQGTLVTVSS
VL: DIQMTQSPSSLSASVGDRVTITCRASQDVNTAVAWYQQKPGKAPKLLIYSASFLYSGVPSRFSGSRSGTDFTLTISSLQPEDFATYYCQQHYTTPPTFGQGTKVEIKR
notes: also called HCDR3 AMDFKFTRLDL
Kd [20]: 36.4 nM
koff [20]: 0.00127 s⁻¹
kon [20]: 35000 M⁻¹ s⁻¹
Kd [21]: 159 nM
koff [21]: 0.00525 s⁻¹
kon [21]: 33100 M⁻¹ s⁻¹

B14: Trast_Her2_50 (Fab, V domains shown)
VH: EVQLVESGGGLVQPGGSLRLSCAASGFNIKDTYIHWVRQAPGKGLEWVARIYPTNGYTRYADSVKGRFTISADTSKNTAYLQMNSLRAEDTAVYYCAKGWGVEPREFAYWGQGTLVTVSS
VL: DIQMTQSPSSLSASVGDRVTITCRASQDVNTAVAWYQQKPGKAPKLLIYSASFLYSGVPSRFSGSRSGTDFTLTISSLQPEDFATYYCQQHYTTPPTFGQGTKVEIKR
notes: also called HCDR3 AKGWGVEPREFAY
Kd [22]: 2.71 nM
koff [22]: 4.19e-05 s⁻¹
kon [22]: 15500 M⁻¹ s⁻¹

B15: Trast_Her2_57 (Fab, V domains shown)
VH: EVQLVESGGGLVQPGGSLRLSCAASGFNIKDTYIHWVRQAPGKGLEWVARIYPTNGYTRYADSVKGRFTISADTSKNTAYLQMNSLRAEDTAVYYCAKPYYYFSDGLEYWGQGTLVTVSS
VL: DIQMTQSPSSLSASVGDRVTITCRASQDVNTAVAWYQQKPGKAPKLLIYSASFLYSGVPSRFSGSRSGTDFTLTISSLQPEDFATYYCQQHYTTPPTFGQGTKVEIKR
notes: also called HCDR3 AKPYYYFSDGLEY
Kd [23]: 15.6 nM
koff [23]: 0.000321 s⁻¹
kon [23]: 20600 M⁻¹ s⁻¹
Kd [24]: 34.8 nM
koff [24]: 0.000581 s⁻¹
kon [24]: 16700 M⁻¹ s⁻¹

B16: Trast_Her2_230 (Fab, V domains shown)
VH: EVQLVESGGGLVQPGGSLRLSCAASGFNIKDTYIHWVRQAPGKGLEWVARIYPTNGYTRYADSVKGRFTISADTSKNTAYLQMNSLRAEDTAVYYCARFDRYGYYLGTWGQGTLVTVSS
VL: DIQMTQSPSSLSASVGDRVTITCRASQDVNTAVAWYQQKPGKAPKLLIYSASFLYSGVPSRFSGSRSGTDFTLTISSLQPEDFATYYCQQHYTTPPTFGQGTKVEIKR
notes: as for B1
Kd [25]: 104 nM
koff [25]: 0.0023 s⁻¹
kon [25]: 22100 M⁻¹ s⁻¹
Kd [26]: 198 nM
koff [26]: 0.0046 s⁻¹
kon [26]: 23300 M⁻¹ s⁻¹

B17: De novo trastuzumab HCDR3 variant ANDIYIQGYDLNR (Fab, V domains shown)
VH: EVQLVESGGGLVQPGGSLRLSCAASGFNIKDTYIHWVRQAPGKGLEWVARIYPTNGYTRYADSVKGRFTISADTSKNTAYLQMNSLRAEDTAVYYCANDIYIQGYDLNRWGQGTLVTVSS
VL: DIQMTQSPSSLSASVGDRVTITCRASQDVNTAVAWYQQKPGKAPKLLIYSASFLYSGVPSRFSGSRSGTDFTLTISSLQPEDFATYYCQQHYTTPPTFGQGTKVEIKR
notes: Fab format
log10(KD) [27]: -8.4 log10(M)
